Reference: paper PMC11440607 (Journal of Medicinal Chemistry, 2024)

How the values were obtained:
Format in all cases: physicochemical
[1] = Amyloid aggregation propensity by thioflavin-T (ThT) fluorescence
From the text: (§1) The pH-sensitive, reversible amyloid aggregation of GLP-1 and related gastrointestinal hormones is an inherent and functionally critical property. They are stored as condensed amyloids at low pH before being released as monomeric, folded hormones at neutral pH. At the same time, the exact evolutionary origin[45] of Ex4 with its functional role as a salivary toxin in lizards remains unknown.[45],[46] The difference in secretion pathways is notable: GLP-1 is secreted into the bloodstream, while Ex4 is secreted into the alimentary canal. […] In terms of structure, the polyproline tail of the Ex4 Tc fold effectively shields the −^21LFIEWL^26− aggregation-prone region[40] (APR) of the facing α-helix, while the similar −^21EFIAWL^26− helical segment of GLP-1 remains unshielded. We therefore investigated the short- and long-term aggregation behavior of GLP-1, Ex4, and related Tc5b-modified variants using an amyloid-specific thioflavin-T fluorescence assay, CD spectroscopy, and atomic force microscopy (AFM) at 37 °C (Figure 5).
The exact peptide content percentage of the lyophilized peptides was determined by using a Nanodrop Lite UV–vis spectrophotometer at 280 nm. […] The exact concentration was determined by UV spectrometry using a Jasco V-660 spectrophotometer (Tokyo, Japan) at 412 nm with an extinction coefficient of 31.600 M^–1 cm^–1. […] A SpectraMax iD3 microplate reader (Molecular Devices, Sunnyvale, CA, USA) was used to control the experimental conditions (37 °C, orbital shaking at medium intensity) and to collect fluorescence data over 3 days. […] The emitted fluorescence was measured from the bottom of the microplate with medium photomultiplier tube sensitivity (PMT) settings and an integration time of 400 ms. […] The average fluorescence intensity of the peptide-free ThT sample was used as a background and subtracted from the average fluorescence intensity of the peptide-containing samples at each measurement point. The mean and standard deviation of ThT fluorescence intensities were plotted as a function of time using Origin software version 2022b and Excel software version 2020.

[2] = Atomic force microscopy of aggregation samples
Procedure: Ten μL aliquots were taken from the ThT and CD measurement samples at the end point of the experiments, after 3 days and 2 weeks of agitation, respectively. These aliquots were then spread on freshly cleaved mica surfaces and dried overnight in a vacuum desiccator. In some cases, the spread samples were washed with pH-adjusted water to remove any salts that might crystallize during the drying process and potentially complicate the AFM micrograph recording. The surface morphology was analyzed using a FlexAFM microscope system (Nanosurf AG, Liestal, Switzerland) operating in dynamic mode, controlled by Nanosurf control software C3000 version 3.10.4. Micrographs were taken using Tap150GD-G cantilevers (BudgetSensors Ltd., Sofia, Bulgaria) with a nominal tip radius of less than 10 nm. Prescreening was run before data collection to avoid significant height variations in the surface topology. Data collection was performed at different locations within each sample. Images were recorded with a maximum window size of 10 × 10 μm at a resolution of 512 pixels/line. Gwyddion 2.62 software was used to process the AFM data and generate the images.

[3] = Long-term aggregation monitored by CD spectroscopy; settings: pH 7.4, 1 mg mL-1, 150 mM NaCl, 37 °C, 500 rpm, two weeks
From the text: as §1, with “(APR) of the facing α-helix, while the similar −^21EFIAWL^26− helical segment of GLP-1 remains unshielded.” left out
Circular dichroism (CD) experiments were performed using JASCO J-810 and J-1500 spectropolarimeters. […] Melting curves were recorded in the temperature range of 5–85 °C in 5 °C increments. […] Exact concentrations were determined by using a Nanodrop Lite UV–vis spectrophotometer at 280 nm. To determine the folded fraction (F%), the temperature-dependent spectrum collection of 65 CD curves was analyzed using Convex Constraint Analysis Plus software.[59] […]

| Substance | amyloid formation / aggregation propensity ([1]; ThT, CD and AFM, 37 °C, acidic and neutral pH, 1 and 5 mg mL–1) | fibril formation by AFM ([2]; 72 h agitated acidic ThT samples, 1 mg mL–1) | diameter of twisted amyloid fibrils ([2]; AFM, acidic conditions) | amyloid formation under neutral pH conditions [3] | thioflavin-T response under acidic conditions ([1]; ThT fluorescence, pH 4.2–4.5, 1 and 5 mg mL–1, 37 °C, orbital shaking, 3 days, triplicate) | time to amyloid fibril formation under acidic conditions ([1]; acidic conditions, concentration-dependent, 37 °C) [days] |
| --- | --- | --- | --- | --- | --- | --- |
| Exendin-4 [Ex4] | did not exhibit any evidence of amyloid formation |  |  |  |  |  |
| glucagon-like peptide-1 [GLP-1] |  | reveal fibril formation | 5–10 nm | forms amyloid assemblies under neutral pH conditions, albeit in two weeks | exceeded the limit of detection range | ≤ 1 |
